Values of other authors as cited in paper PMC12858339.

Target: Calmodulin (Homo sapiens) (UniProt P0DP23)

For HIV-1 MA MA (from UniProt O93182), the Kd is listed as 2000 nM.
